# Laboratory results reported in PMC6075789, “Comparative proteomics of the two T. brucei PABPs suggests that PABP2 controls bulk mRNA” (PLoS Neglected Tropical Diseases, 2018).
# Read-outs that look alike come from different tables or passages of the source.
# T1: G1-IP2 eYFP fusion protein (T. brucei, UniProt Q387L6 1-435)
# T1 construct: The methods say N-terminal eYFP for all proteins but RBP23; the results print the label G1-IP2-eYFP; source: T. brucei procyclic Lister 427, expressed from the endogenous locus, in lysate of cryomilled cells; not shown: eYFP, N-terminal, kept
# T1 sequence (looked up): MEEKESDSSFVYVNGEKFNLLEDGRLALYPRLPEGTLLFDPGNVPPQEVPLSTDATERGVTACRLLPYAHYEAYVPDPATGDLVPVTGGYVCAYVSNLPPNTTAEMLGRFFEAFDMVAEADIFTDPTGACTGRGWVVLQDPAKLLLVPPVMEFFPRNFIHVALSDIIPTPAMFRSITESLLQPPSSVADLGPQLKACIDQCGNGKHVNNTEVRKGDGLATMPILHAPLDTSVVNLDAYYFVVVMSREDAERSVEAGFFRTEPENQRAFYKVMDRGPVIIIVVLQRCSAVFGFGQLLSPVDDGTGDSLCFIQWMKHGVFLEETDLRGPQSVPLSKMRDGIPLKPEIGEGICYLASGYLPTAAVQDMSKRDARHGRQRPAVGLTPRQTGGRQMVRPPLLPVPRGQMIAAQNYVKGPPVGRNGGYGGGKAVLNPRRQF
# How the values were obtained:
# [1] = biological target: eIF4E4 eYFP fusion protein (T. brucei); test: co-IP; eYFP fusion of eIF4E4 or G1-IP2 precipitated from cryomilled powder in low salt buffer with anti-GFP nanobody LaG16-LaG2 on magnetic beads; co-precipitated PABP-4Ty1 detected by western blot with anti-Ty1 (BB2); enrichment against beads without antibody, two replicates
# [2] = biological target: T1, G1-IP2 eYFP fusion protein; test: as above
Molecule,enrichment ratio against control beads without antibody [1] [fold],enrichment ratio against control beads without antibody [2] [fold],enrichment ratio against control beads without antibody ([2]; partners not purified) [fold]
PABP2-4Ty1 (natural protein),3,19,
"PABP1-4Ty1 (natural protein, T. brucei, UniProt Q38E63 1-566, looked up, also called PABP-Ty1; source: T. brucei procyclic Lister 427, expressed from the endogenous locus, in lysate of cryomilled cells) MTIAAQGVPSGPSATKPLQVASLYVGDLDPAINEPQLVDIFKPYGTILNVRVCRDIITQRSLGYGYVNYDDVNSASKAMEELNFKRVGEKCIRIMWQQRDPALRYSGSGNIFVKNLKEEVDSRELSLIFKKFGEILSCKVMDDESGKSRGYGFVHFKDDDAAKAAIEKMNGDKEHADADKAALYVANFIRRNARLAALVANFTNVYIKQLLPTVDKDVIEKFFSKFGGITSAAICKDKNGRAFAFCNFEKHDDAVKAIEASHDQEVEGVTQPGEKLYVQRAQPRSERLIALRQKYMQCQSLGNNLYVRNFDAEFTEKDLNELFKEYGVIRSCRVMTDANGISRGFGFVSFENADQANAALREMNGRMLNGKPLVVNIAQRRDQRLTMLKLQLQQRLQMMMHHMHPPPFGMPGHPLQRRNARSGGRGNRPHPRQQQPQPQPEPQPPLATTVPPAAAHSVMFTAPSMGFSAVPRTPQASPAIAPDTPPLPPISAEDLQQMSVDEQRAALGDRLYIKVHELAPDHAPKITGMFLEMNPKEALALLSNPKLMHEKVTEALCVLKVHASSA",64,,4
